These results are taken from patent publication US5770717.

The test concerns the target activation domain-fused yeast RPB4 protein (RPB4 in JG4-5) (yeast (Saccharomyces cerevisiae)) (UniProt P20433). The test can be described thus: two-hybrid interaction trap in yeast, beta-galactosidase assay with and without activation domain-fused RPB4.

Turning to “LexA-RPB7 fusion protein (yeast RPB7) (from UniProt P34087)”, the degree of enhancement of activation (beta-galactosidase assay) was found to be 60 fold.
